Laboratory results taken from patent US20230104113.

Tested on: NF-kB (human)
Assay: cell_activity
Details: lipid transfection of 1 pmol

AAAAAAAAAAGAUCUUGAAACUGUUUUAAGGUUGGCCGAUCUUAAAAAA [NF-kB aptamer circular RNA]
activity (A549 MTT day 2 (89% day 1), with doxorubicin 79% day 1, 73% day 2): 86 % viability

AAAAAAAAAAGAUCUUGAAACUGUUUUAAGGUUGGCCGAUCUUAAAAAA [NF-kB aptamer linear RNA]
activity (5' monophosphate, A549 MTT day 2 (101% day 1), with doxorubicin 78% day 2): 97 % viability
